# In patent US6558660B2, “Method for regulating IL-10 with IL-9, and applications thereof” (Ludwig Institute for Cancer Research, priority 2000, dated 2003):
# B1: IL-4: IL-4 (3 μg/mouse), together with 30 μg of anti-IL-4 monoclonal antibodies; composition improving bioavailability of IL-4 (protein, UniProt P07750 21-140, looked up)
# Interleukin-4: HIHGCDKNHLREIIGILNEVTGEGTPCTEMDVPNVLTATKNTTESELVCRASKVLRIFYLKHGKTPCLKKNSSVLMELQRLFRAFRCLDSSISCTMNESKSTSLKDFLESLKSIMQMDYS
# modifications: complexed with anti-IL-4 antibody
# B2: IL-9: recombinant murine IL-9 produced in a baculovirus model in accordance with Druez, et al (protein, UniProt P15247 19-144, looked up)
# Interleukin-9: QRCSTTWGIRDTNYLIENLKDDPPSKCSCSGNVTSCLCLSVPTDDCTTPCYREGLLQLTNATQKSRLLPVFHRVKRIVEVLKNITCPSFSCEKPCNQTMAGNTLSFLKSLLGTFQKTEMQRQKSRP
# Assays:
# [1] = tested on: P. aeruginosa (serotype 10); details: cited from earlier work
# IL-10 [2] = experiment: serum IL-10 by ELISA after P. aeruginosa challenge; format: in vivo, mice; details: 2 hours following Pseudomonas infection; IL-9 24 and 1 hour prior to challenge
# Method: (§1) In view of the observations of Giampetri, et al, supra, serum levels of the anti-inflammatory cytokines IL-4 and IL- 10 were measured in the sera of mice that had been challenged, either with the whole bacteria or with LPS, as described supra, and had received IL-9 24 and 1 hour prior to challenge, as described supra. Levels were measured via ELISAs, 2, 4, 6, 8, and 24 hours after challenge.
# IL-10 [3] = experiment: serum IL-10 by ELISA after LPS challenge; format: in vivo; details: LPS challenged mice; IL-9 24 and 1 hour prior to challenge
# Method: as §1
# IL-10 [4] = experiment: PCR of IL-10 transcripts in spleen cells of challenged mice; format: in vivo; details: after infection, animals which had received IL-9; control mice hardly detectable
# Method: The experiments described herein report analyses of expression of IL-10. Specifically, total RNA was isolated from spleen cells of challenged mice at different points in time (0.5, 1, 2, 4, and 8 hours). Isolation was carried out in accordance with Campanile, et al, Eur. J. Pharmacol. 307:191 (1996), and Houssiau, et al, J. Immunol. 154:2624 (1995), incorporated by reference. These references also describe the PCR protocols used for amplifying transcripts of β-actin (control), and IL-10. Commercially available primers were used to amplify β actin, and the 5′ and 3′ primers for IL-10 were, respectively: […]
# The amplification product for β actin should be 540 base pairs in length, and that of IL-10, 256 base pairs. Products were analyzed via 1.5% agarose gel electrophoresis, and visualized by ethidium bromide staining.
# [5] = tested on: TNF-α, IL-12 p40, and IFN-γ; experiment: serum levels of TNF-α, IL-12 p40 and IFN-γ after challenge (bioassay / immunoassay); format: in vivo, mice; details: IL-9 24 and 1 hour prior to challenge (P. aeruginosa or LPS); 2, 4 and 6 hours after challenge
# Excerpt: (§2) It has been observed, previously, that there is a strong association between development of fatal septic shock and production of TNF-α. See, e.g., the Campanile papers, cited supra. In addition, IL-12 and IFN-γ are pro-inflammatory cytokines thought to have a pathogenetic role in both septic shock and endotoxemia. See D'Andrea, et al, J. Exp. Med. 178:1041 (1993). Murphy, et al, J. Exp. Med. 180:223 (1994); Kubin, et al, J. Exp. Med. 180:211 (1994). In view of the results secured in examples 1 & 2, studies were undertaken to measure serum levels of TNF-α, IL-12 p40, and IFN-γ, in subject animals challenged with P. aeruginosa in the manner described supra, or lipopolysaccharide antigen (“LPS” hereafter), that were also treated with IL-9.
# (§3) In these experiments, mice were injected, intraperitoneally, with 850 μg of LPS, which had been determined previously to constitute an LD90. All animals received doses of IL-9 as described supra, 24 and 1 hour prior to challenge. Sera were analyzed 2, 4, 6, 8, and 24 hours following challenge, using either a standard bioassay for TNF-α (cytotoxicity to TNF-α sensitive WEH1 164 cells), or via an immunossay (IL-12p40 and IFN-γ).
# TNF-α [6] = experiment: serum TNF-α bioassay (cytotoxicity to WEH1 164 cells) after P. aeruginosa challenge; format: in vivo; details: P. aeruginosa treated mice; IL-9 24 and 1 hour prior to challenge
# Excerpt: as §2, §3
# [7] = LPS challenge (LD90), survival; format: in vivo, mice; details: 850 μg LPS i.p.; IL-9 24 and 1 hour prior to challenge
# Method: as §3
# TNF-α [8] = experiment: serum TNF-α bioassay (cytotoxicity to WEH1 164 cells) after LPS challenge; format: in vivo, mice; details: LPS challenged animals (850 μg i.p.); IL-9 24 and 1 hour prior to challenge
# Excerpt: as §2, §3
# [9] = tested on: P. aeruginosa (serotype 10); experiment: live sepsis model, survival after lethal P. aeruginosa challenge; format: in vivo, mice
# Method: This model was used in these experiments. To elaborate, hybrid mice (BALB/c Cr×DBA/2Cr) F1 (CD2 F1) of both sexes, ranging in age from 2-4 months were used. Mice were injected, intravenously, with 10^10 cells of P. aeruginosa (serotype 10), as described by, e.g., Campanile, et al, Cell. Immunol. 128:250 (1990); Campanile, et al, Cell. Immunol. 147:341 (1993); Campanile, et al, Eur. J. Pharmacol. 307:191 (1996). The microorganism was cultured in tryptic soy broth using standard conditions, and incubated at 37° C. for 18-24 hours under constant aeration. After the overnight culturing, the microorganisms were centrifuged, forming a soft pellet which was then resuspended in phosphate buffered saline. The dose of microorganisms referred to supra was then administered. This inoculum size is known to be lethal in more than 90% of test animal populations.
# The interleukins and PBS were all administered intraperitoneally. Pentoxifylline was also administered intraperitoneally.
# The experiments described supra were repeated, using a variety of doses, and both prophylactic and post-challenge administration.
# To test this, mice received pentoxifylline at a dose of 30 mg/kg of body weight 1 hour before challenge with bacteria. The animals received a dose of murine IL-9 (4 μg) three hours post infection.
# IL-4 = experiment: serum IL-4 by ELISA after challenge; format: in vivo, mice; details: IL-9 24 and 1 hour prior to challenge with bacteria or LPS; 2-24 hours after challenge
# Method: as §1
molecule,measurement,setting,value
"CC(=O)CCCCn1c(=O)c2c(ncn2C)n(C)c1=O [Pentoxifylline, reference compound]",protection in experimental sepsis,"[1]; phosphodiesterase inhibitor, literature statement",confers protection
B1,protection against fatal sepsis,"[1]; IL-4 3 μg/mouse together with 30 μg anti-IL-4 monoclonal antibodies, i.p., before P. aeruginosa challenge",100%
B2,increase of IL-10 levels (serum),IL-10 [2],striking
same,increase of IL-10 levels (serum),IL-10 [3],"The same effect, albeit a lesser one"
same,IL-10 specific transcripts in spleen,IL-10 [4],extensive expression
same,"expression of the cytokines (TNF-α, IL-12 p40, IFN-γ) in serum",[5],drastic reduction in all three cytokines
same,drop in TNF-α levels,TNF-α [6],10 fold
same,outcome (survival) of LPS challenged mice,[7],death in the majority of the animals tested
same,drop in TNF-α levels,TNF-α [8],better than a twofold drop
same,survival rate,"[9]; IL-9 i.p. prior to P. aeruginosa challenge, pooled independent experiments",about 80%
same,cure rate,"[9]; single 4 μg dose 24 hours before bacterial challenge, no second dose",50%
same,benefit (survival),"[9]; single treatment of 4 μg near the time of infection, and as much as 3 hours post challenge",marginal benefit
same,effect on IL-4 production (serum level),IL-4,did not appear to have any effect
